Experimental findings from patent US6136558A, “Heregulin variants” (Genentech, Inc., priority 1998, dated 2000) are described below.

Residue numbers refer to the chain shown, from its start. In names and notes the source's numbering stands. Where only a bound is given, the exact number is not on record here.

Assay [1] deals with ErbB-3 receptor-Ig fusion (human) (UniProt P21860). The assay is described as follows: phage ELISA, soluble ErbB-3-Ig as competitor.
Assay [2] addresses ErbB-4 receptor-Ig fusion (human) (UniProt Q15303). In words: phage ELISA, soluble ErbB-4-Ig as competitor.
The target of assay [3] is ErbB-3 receptor-Ig fusion (human) (UniProt P21860). In words: phage ELISA, ratio to wild-type HRG8 phage.
The target is the same in assay [4]. The assay is described as follows: displacement of 125I-HRG-β1 177-244 from ErbB-3-Ig.
The target of assay [5] is ErbB-4 receptor-Ig fusion (human) (UniProt Q15303). In words: displacement of 125I-HRG-β1 177-244 from ErbB-4-Ig.

For HRG-β1 177-244 S177A on phage (ligand), the EC50 in assay [1] stood at 67 nM; in assay [2], 83 nM.
In the case of HRG-β1 177-244 F216A on phage (ligand), the EC50 in assay [1] was 500 nM; in assay [2], more than 1000 nM.
On the same counts, the results for HRG-β1 177-244 G193A on phage (ligand) are more than 1000 nM and 23 nM.
The matching figures for HRG-β1 177-244 K211A on phage (ligand): more than 1000 nM and 59 nM.
The matching figures for HRG-β1 177-244 G218A on phage (ligand): more than 1000 nM and more than 1000 nM.
As to HRG-β1 177-244 F189A on phage (ligand), the EC50 in assay [1] worked out at 892 nM; in assay [2] it was 106 nM.
On to SHLVKCAEKEKTFCVNGGECFMVKDPSRYLCKCPNEFTGDRCQNYVMAS (ligand) [HRG63 (phage)], for which the EC50(wt)/EC50(mut) in assay [3] was 1.1.
On the same count and under the same terms, the same measure for SHLVKCAEKEKTFCVNGGECFMVKDYGYLMCKCPNEFTGDRCQNYVIAS (ligand) [HRG48 (phage)]: 49; for SHLVKCAEKEKTFCVNGGECFMVKDYRYRMCKCPNEFTGDRCQNYVIAS (ligand) [E3 (phage)]: 16.

B1: B5 (phage) (ligand)
chain: SHLVKCGWDREGFCVNGGECFMVKDLSNPSRYLCKCPNEFTGDRCQNYVIAS
For the molecule B1, in assay [3], the EC50(wt)/EC50(mut) came out at 26.

B2: HRG53 (phage) (ligand)
chain: B1 chain with W8E, D9E, F21Y, M22R, D25T, I50M
On to B2, for which the EC50(wt)/EC50(mut) in assay [3] came out at 26.

B3: HRG37 (phage) (ligand)
chain: B1 chain with S1W, H2E, K5P
As to B3, the EC50(wt)/EC50(mut) in assay [3] turned out to be 13.

B4: B10 (phage) (ligand)
chain: B1 chain with G7D, W8K, D9S
Take B4: the EC50(wt)/EC50(mut) in assay [3] was 9.3.

B5: HRG60 (phage) (ligand)
chain: B1 chain with W8E, D9E, F21Y, M22R, D25T
For B5, the EC50(wt)/EC50(mut) in assay [3] stood at 63.

B6: HRG56 (phage) (ligand)
chain: B1 chain with W8E, D9E
Consider B6, for which, in assay [3], the EC50(wt)/EC50(mut) came out at 31.

B7: Trx-HRG-β1 146-244 S177A fusion (ligand)
chain: DDDDKAYVSSESPIRISVSTEGANTSSSTSTSTTGTAHLVKCAEKEKTFCVNGGECFMVKDLSNPSRYLCKCPNEFTGDRCQNYVMASFYKHLGIEFMEAEELY
B7: the half-maximal effective concentration (EC50) was 129 nM in assay [4] and 54.6 nM in assay [5].

B8: Trx-HRG-β1 146-244 V199A fusion (ligand)
chain: B7 chain with A37S, V59A
For B8, the EC50 in assay [5] came out at 246 nM.

B9: Trx-HRG-β1 146-244 H178A fusion (ligand)
chain: B7 chain with A37S, H38A
For B9, the EC50 in assay [4] stood at 476 nM; in assay [5], 138 nM.

B10: Trx-HRG-β1 146-244 G218A fusion (ligand)
chain: B7 chain with A37S, G78A
In the case of B10, the EC50 in assay [4] is 668 nM; in assay [5], 608 nM.

B11: Trx-HRG-β1 146-244 G194A fusion (ligand)
chain: B7 chain with A37S, G54A
On to B11, for which the figures for the EC50 in assay [4] and in assay [5] were 1210 nM and 275 nM, respectively.

B12: Trx-HRG-β1 146-244 K211A fusion (ligand)
chain: B7 chain with A37S, K71A
As for B12, the EC50 in assay [4] is 248 nM; in assay [5], 124 nM.

B13: Trx-HRG-β1 146-244 G193A fusion (ligand)
chain: B7 chain with A37S, G53A
With B13, the EC50 in assay [4] was 26.9 nM; in assay [5] it was 76.3 nM.

B14: Trx-HRG-β1 146-244 L179A fusion (ligand)
chain: B7 chain with A37S, L39A
B14: the EC50 in assay [4] turned out to be 394 nM; in assay [5] it was 51.7 nM.

B15: Trx-HRG-β1 146-244 K200A fusion (ligand)
chain: B7 chain with A37S, K60A
On to B15, for which the results for the EC50 in assay [4] and in assay [5] were 45.4 nM and 16.9 nM, respectively.

B16: Trx-HRG-β1 146-244 Y224A fusion (ligand)
chain: B7 chain with A37S, Y84A
Take B16: the half-maximal effective concentration (EC50) in assay [4] amounted to 339 nM; in assay [5], 24.5 nM.

B17: Trx-HRG-β1 146-244 F229A fusion (ligand)
chain: B7 chain with A37S, F89A
Take B17: the EC50 in assay [4] was 177 nM; in assay [5], 89.9 nM.

B18: Trx-HRG-β1 146-244 N192A fusion (ligand)
chain: B7 chain with A37S, N52A
With B18, the figures for the EC50 in assay [4] and in assay [5] were 1640 nM and 696 nM, respectively.

B19: Trx-HRG-β1 146-244 T217A fusion (ligand)
chain: B7 chain with A37S, T77A
With B19, the EC50 amounted to 145 nM in assay [4] and 32.7 nM in assay [5].

B20: Trx-HRG-β1 146-244 E195A fusion (ligand)
chain: B7 chain with A37S, E55A
In the case of B20, the EC50 in assay [4] stood at 42 nM; in assay [5] it was 13.2 nM.

B21: Trx-HRG-β1 146-244 E215A fusion (ligand)
chain: B7 chain with A37S, E75A
Consider B21, for which the EC50 in assay [4] came to 156 nM; in assay [5], 104 nM.

B22: Trx-HRG-β1 146-244 F216A fusion (ligand)
chain: B7 chain with A37S, F76A
As for B22, the EC50 in assay [4] worked out at 2550 nM; in assay [5] it was 173 nM.

B23: Trx-HRG-β1 146-244 F189A fusion (ligand)
chain: B7 chain with A37S, F49A
In the case of B23, the EC50 in assay [4] worked out at 975 nM; in assay [5], 565 nM.

B24: Trx-HRG-β1 146-244 R207A fusion (ligand)
chain: B7 chain with A37S, R67A
Consider B24, for which the values for the EC50 in assay [4] and in assay [5] were 245 nM and 24.3 nM, respectively.

B25: Trx-HRG-β1 146-244 P205A fusion (ligand)
chain: B7 chain with A37S, P65A
Turning to B25, the half-maximal effective concentration (EC50) turned out to be 39.5 nM in assay [4] and 34.2 nM in assay [5].
Regarding SHLVKCGEEREGFCVNGGECFMVKDYGYLMCKCPNEFTGDRCQNYVMAS (ligand) [HRG54 (phage)], in assay [3], the EC50(wt)/EC50(mut) amounted to 12.
On to SHLVKCGEEREGFCVNGGECYRVKTYGYLMCKCPNEFTGDRCQNYVIAS (ligand) [HRG62 (phage)], for which the EC50(wt)/EC50(mut) in assay [3] came to 32.
With SHLVKCGEEREGFCVNGGECFMVKDYGYLMCKCPNEFTGDRCQNYVIAS (ligand) [HRG61 (phage)], the EC50(wt)/EC50(mut) in assay [3] was found to be 29.
Still for that read-out and setting: the same measure for SHLVKCGEEREGFCVNGGECYRVKTYGYLMCKCPNEFTGDRCQNYVMAS (ligand) [HRG55 (phage)]: 13.

B26: recombinantly produced HRG-β1 177-244 (ligand)
chain: SHLVKCAEKEKTFCVNGGECFMVKDLSNPSRYLCKCPNEFTGDRCQNYVMASFYKHLGIEFMEAEELY
Turning to B26, the EC50 in assay [4] is 9 nM; in assay [5], 14.8 nM.

B27: A1 (phage) (ligand)
chain: WRLVPCAEKEKTFCVNGGECFMVKDLSNPSRYLCKCPNEFTGDRCQNYVMAS
Turning to B27, the EC50(wt)/EC50(mut) in assay [3] stood at 0.55.

B28: D10 (phage) (ligand)
chain: B27 chain with W1S, R2H, P5K, F21Y, D25T
Turning to B28, the EC50(wt)/EC50(mut) in assay [3] turned out to be 2.1.

B29: H5 (phage) (ligand)
chain: B27 chain with W1S, R2H, P5K, D43E
As for B29, the EC50(wt)/EC50(mut) in assay [3] was 1.5.

B30: I1 (phage) (ligand)
chain: B27 chain with W1S, R2H, P5K, N47W, M50I
Take B30: the EC50(wt)/EC50(mut) in assay [3] was determined as 13.

B31: A4 (phage) (ligand)
chain: B27 chain with R2S, P5K
For the molecule B31, the EC50(wt)/EC50(mut) in assay [3] was less than 0.3.

B32: A2 (phage) (ligand)
chain: B27 chain with R2S, V4Q
For B32, the EC50(wt)/EC50(mut) in assay [3] is 0.87.

B33: D1 (phage) (ligand)
chain: SHLVKCAEKEKTFCVNGGECYKVRILSNPSRYLCKCPNEFTGDRCQNYVIAS
Turning to B33, the EC50(wt)/EC50(mut) in assay [3] came to 11.

B34: HRG59 (phage) (ligand)
chain: B33 chain with K22R, R24K, I25T
Take B34: in assay [3], the EC50(wt)/EC50(mut) was 26.
As for SHLVKCAEKEKTFCVNGGECYRVKTYGYLMCKCPNEFTGDRCQNYVMAS (ligand) [HRG57 (phage)], in assay [3], the EC50(wt)/EC50(mut) is 24.
On the same count and under the same terms, the same measure for SHLVKCAEKEKTFCVNGGECYRVKTYGYLMCKCPNEFTGDRCQHYVIAS (ligand) [HRG71 (phage)]: 79.
